Measured values as given in patent US6114125.

Target: β-casein
Conditions: scale: % of the protease activity of natural Hin47 protein

How did the Protease activity (digestion of β-casein, SDS-PAGE) turn out when Hin47 Ser-197->alanine analog (enzyme) was run?
The Protease activity (digestion of β-casein, SDS-PAGE) was less than 10.
